# Measurements reported in patent US20200262877A1, “ION CHANNEL-BINDING PEPTIDES AND METHODS OF USE THEREOF” (priority 2017, published 2020).
# Assays:
# 5HT3a = biological target: T1, 5HT3a (Homo sapiens, UniProt P46098); experiment: Ion channel panel (IonWorks Barracuda): 5HT3a; type: cell-based
# T1 construct: host or cells: HEK293 or CHO
# T1 sequence (P46098 whole entry, looked up): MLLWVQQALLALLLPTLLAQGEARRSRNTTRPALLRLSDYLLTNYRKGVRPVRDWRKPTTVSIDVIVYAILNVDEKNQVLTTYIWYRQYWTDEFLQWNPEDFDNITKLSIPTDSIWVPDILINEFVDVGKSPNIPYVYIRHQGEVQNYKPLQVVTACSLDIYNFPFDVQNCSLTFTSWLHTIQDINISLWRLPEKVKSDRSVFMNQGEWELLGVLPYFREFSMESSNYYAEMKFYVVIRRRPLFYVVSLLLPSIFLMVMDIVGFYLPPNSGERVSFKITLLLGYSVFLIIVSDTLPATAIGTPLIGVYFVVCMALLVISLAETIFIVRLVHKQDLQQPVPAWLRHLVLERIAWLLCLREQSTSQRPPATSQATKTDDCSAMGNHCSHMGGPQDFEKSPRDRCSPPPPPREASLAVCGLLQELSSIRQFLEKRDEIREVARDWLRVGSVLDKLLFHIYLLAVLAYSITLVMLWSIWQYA
# How it was run: (§1)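 Transfected HEK293 or CHO cells were exposed for at least 5 min to peptides at 200 nM and 20 μM final, tested in duplicate, in HEPES-buffered physiological saline. Activation was taken as peptide-plus-agonist current over control current ×100, and inhibition as 1 minus that ratio ×100. Each channel's control was its own reference compound.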
# α3β4 = biological target: T2, α3β4 (Homo sapiens, UniProt P30926+P32297); experiment: Ion channel panel (IonWorks Barracuda): α3β4; type: cell-based; settings: 100% = no change, <100% = inhibition
# T2 construct: host or cells: HEK293 or CHO
# How it was run: as §1
# α4β2 = biological target: T3, α4β2 (Homo sapiens, UniProt P17787+P43681); experiment: Ion channel panel (IonWorks Barracuda): α4β2; type: cell-based; settings: 100% = no change, <100% = inhibition
# T3 construct: host or cells: HEK293 or CHO
# How it was run: as §1
# Cav2.1 = biological target: T4, Cav2.1 (Homo sapiens, UniProt O00555); experiment: cell-based; settings: 100% = no change, <100% = inhibition
# T4 construct: host or cells: HEK293 or CHO
# How it was run: as §1
# Cav2.2 = biological target: T5, Cav2.2 (Homo sapiens, UniProt Q00975); experiment: cell-based; settings: 100% = no change, <100% = inhibition
# T5 construct: host or cells: HEK293 or CHO
# How it was run: as §1
# Kv2.1 = biological target: T6, Kv2.1 (Homo sapiens, UniProt Q14721); experiment: cell-based; settings: 100% = no change, <100% = inhibition
# T6 construct: host or cells: HEK293 or CHO
# How it was run: as §1
# GABA = experiment: Ion channel panel (IonWorks Barracuda): GABA; type: cell-based; settings: 100% = no change, <100% = inhibition
# How it was run: as §1
# Nav1.5 = Nav1.5 (Homo sapiens, UniProt Q14524); experiment: in vitro; settings: 100% = no change; for Activity of Nav1.5 with peptide, expressed as a percentage of the reference compound: peptide at 0.2 μM; for Activity of Nav1.5 with peptide (percentage of the reference compound): peptide at 20 μM
# How it was run: as §1
# hERG = hERG (Homo sapiens, UniProt Q12809); experiment: in vitro; settings: 100% = no change, <100% = inhibition
# How it was run: as §1
# Kir2.1 = biological target: T7, Kir2.1 (Homo sapiens, UniProt P63252); experiment: Ion channel panel (IonWorks Barracuda): Kir2.1; type: cell-based; settings: 100% = no change, <100% = inhibition
# T7 construct: host or cells: HEK293 or CHO
# How it was run: as §1
# Kv1.1 = biological target: T8, Kv1.1 (Homo sapiens, UniProt Q09470); experiment: cell-based; type: cell-based; settings: 100% = no change, <100% = inhibition
# T8 construct: host or cells: HEK293 or CHO
# How it was run: as §1
# Kv1.2 = biological target: T9, Kv1.2 (Homo sapiens, UniProt P16389); experiment: cell-based; type: cell-based; settings: 100% = no change, <100% = inhibition
# T9 construct: host or cells: HEK293 or CHO
# How it was run: as §1
# Kv1.3 = biological target: T10, Kv1.3 (Homo sapiens, UniProt P22001); experiment: cell-based; type: cell-based; settings: 100% = no change, <100% = inhibition
# T10 construct: host or cells: HEK293 or CHO
# How it was run: as §1
# Nav1.7 = biological target: T11, Nav1.7 (Homo sapiens, UniProt Q15858); experiment: cell-based; type: cell-based; settings: 100% = no change; for Activity of Nav1.7 with peptide, expressed as a percentage of the reference compound: peptide at 0.2 μM; for Activity of Nav1.7 with peptide (percentage of the reference compound): peptide at 20 μM
# T11 construct: host or cells: HEK293 or CHO
# NR2A = biological target: T12, NR2A (Homo sapiens, UniProt Q12879); experiment: Ion channel panel (IonWorks Barracuda): NR2A; type: cell-based; settings: 100% = no change, <100% = inhibition
# T12 construct: host or cells: HEK293 or CHO
# How it was run: as §1
# NR2B = biological target: T13, NR2B (Homo sapiens, UniProt Q13224); experiment: Ion channel panel (IonWorks Barracuda): NR2B; type: cell-based; settings: 100% = no change, <100% = inhibition
# T13 construct: host or cells: HEK293 or CHO
# How it was run: as §1
# TRPA1 = biological target: T14, TRPA1 (Homo sapiens, UniProt O75762); experiment: Ion channel panel (IonWorks Barracuda): TRPA1; type: cell-based; settings: 100% = no change, <100% = inhibition
# T14 construct: host or cells: HEK293 or CHO
# How it was run: as §1
# TRPV1 = biological target: T15, TRPV1 (Homo sapiens, UniProt Q8NER1); experiment: Ion channel panel (IonWorks Barracuda): TRPV1; type: cell-based; settings: 100% = no change, <100% = inhibition
# T15 construct: host or cells: HEK293 or CHO
# How it was run: as §1
# [1] = first of two Nav1.5 columns (probably TP1)
# [2] = second of two Nav1.5 columns (probably TP2)
# [3] = first of two Nav1.7 columns (probably TP1)
# [4] = second of two Nav1.7 columns (probably TP2)
# T11 sequence (Q15858 whole entry): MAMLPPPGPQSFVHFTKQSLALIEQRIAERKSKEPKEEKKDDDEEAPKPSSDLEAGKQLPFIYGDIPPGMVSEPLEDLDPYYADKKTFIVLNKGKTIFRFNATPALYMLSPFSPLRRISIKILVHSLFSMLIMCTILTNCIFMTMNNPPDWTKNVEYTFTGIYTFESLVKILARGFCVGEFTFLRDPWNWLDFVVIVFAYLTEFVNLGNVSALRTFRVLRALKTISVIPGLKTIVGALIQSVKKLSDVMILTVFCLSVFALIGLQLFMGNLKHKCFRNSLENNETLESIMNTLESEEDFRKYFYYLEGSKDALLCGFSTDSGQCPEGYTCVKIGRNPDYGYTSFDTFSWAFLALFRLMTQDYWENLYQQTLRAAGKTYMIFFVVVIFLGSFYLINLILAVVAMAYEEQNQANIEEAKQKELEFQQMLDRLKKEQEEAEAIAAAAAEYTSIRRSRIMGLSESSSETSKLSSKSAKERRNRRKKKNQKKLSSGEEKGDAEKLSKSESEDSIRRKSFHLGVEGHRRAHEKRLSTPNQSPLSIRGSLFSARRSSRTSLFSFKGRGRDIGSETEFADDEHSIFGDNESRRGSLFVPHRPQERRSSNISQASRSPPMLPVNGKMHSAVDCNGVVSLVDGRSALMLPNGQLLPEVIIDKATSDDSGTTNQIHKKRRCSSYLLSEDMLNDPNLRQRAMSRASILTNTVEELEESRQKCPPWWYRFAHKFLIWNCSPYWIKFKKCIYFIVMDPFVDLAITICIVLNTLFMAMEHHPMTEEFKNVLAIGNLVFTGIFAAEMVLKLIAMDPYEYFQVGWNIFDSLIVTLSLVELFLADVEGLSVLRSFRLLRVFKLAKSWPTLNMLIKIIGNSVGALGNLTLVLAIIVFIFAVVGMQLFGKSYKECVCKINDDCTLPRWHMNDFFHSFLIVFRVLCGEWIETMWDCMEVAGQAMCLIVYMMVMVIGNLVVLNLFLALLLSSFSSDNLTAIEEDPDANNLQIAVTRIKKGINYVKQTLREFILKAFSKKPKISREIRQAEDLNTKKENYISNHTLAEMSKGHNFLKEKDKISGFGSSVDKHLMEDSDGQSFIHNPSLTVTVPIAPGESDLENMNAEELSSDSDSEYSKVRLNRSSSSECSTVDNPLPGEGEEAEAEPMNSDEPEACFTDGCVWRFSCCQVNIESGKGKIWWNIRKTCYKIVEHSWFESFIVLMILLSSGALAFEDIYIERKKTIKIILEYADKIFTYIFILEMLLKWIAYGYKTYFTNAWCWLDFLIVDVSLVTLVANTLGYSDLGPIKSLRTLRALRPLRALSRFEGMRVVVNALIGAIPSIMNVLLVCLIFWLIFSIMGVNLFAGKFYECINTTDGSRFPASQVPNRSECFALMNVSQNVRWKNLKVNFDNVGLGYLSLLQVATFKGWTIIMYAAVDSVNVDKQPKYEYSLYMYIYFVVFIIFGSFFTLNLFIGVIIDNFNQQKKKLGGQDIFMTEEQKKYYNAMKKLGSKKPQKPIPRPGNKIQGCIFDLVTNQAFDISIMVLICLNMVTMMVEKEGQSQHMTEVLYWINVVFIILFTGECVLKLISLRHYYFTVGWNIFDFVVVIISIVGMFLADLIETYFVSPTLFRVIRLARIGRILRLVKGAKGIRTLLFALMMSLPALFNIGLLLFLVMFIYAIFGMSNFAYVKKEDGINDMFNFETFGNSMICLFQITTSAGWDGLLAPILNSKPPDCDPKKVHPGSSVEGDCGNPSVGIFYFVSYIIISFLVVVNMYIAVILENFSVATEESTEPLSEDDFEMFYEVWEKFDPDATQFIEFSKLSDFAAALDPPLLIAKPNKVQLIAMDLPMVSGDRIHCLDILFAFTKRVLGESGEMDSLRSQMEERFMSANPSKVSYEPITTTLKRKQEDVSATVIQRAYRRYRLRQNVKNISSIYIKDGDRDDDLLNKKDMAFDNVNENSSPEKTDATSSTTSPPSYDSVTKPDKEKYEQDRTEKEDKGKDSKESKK
# Chain of Nav1.5 (Q14524 whole entry): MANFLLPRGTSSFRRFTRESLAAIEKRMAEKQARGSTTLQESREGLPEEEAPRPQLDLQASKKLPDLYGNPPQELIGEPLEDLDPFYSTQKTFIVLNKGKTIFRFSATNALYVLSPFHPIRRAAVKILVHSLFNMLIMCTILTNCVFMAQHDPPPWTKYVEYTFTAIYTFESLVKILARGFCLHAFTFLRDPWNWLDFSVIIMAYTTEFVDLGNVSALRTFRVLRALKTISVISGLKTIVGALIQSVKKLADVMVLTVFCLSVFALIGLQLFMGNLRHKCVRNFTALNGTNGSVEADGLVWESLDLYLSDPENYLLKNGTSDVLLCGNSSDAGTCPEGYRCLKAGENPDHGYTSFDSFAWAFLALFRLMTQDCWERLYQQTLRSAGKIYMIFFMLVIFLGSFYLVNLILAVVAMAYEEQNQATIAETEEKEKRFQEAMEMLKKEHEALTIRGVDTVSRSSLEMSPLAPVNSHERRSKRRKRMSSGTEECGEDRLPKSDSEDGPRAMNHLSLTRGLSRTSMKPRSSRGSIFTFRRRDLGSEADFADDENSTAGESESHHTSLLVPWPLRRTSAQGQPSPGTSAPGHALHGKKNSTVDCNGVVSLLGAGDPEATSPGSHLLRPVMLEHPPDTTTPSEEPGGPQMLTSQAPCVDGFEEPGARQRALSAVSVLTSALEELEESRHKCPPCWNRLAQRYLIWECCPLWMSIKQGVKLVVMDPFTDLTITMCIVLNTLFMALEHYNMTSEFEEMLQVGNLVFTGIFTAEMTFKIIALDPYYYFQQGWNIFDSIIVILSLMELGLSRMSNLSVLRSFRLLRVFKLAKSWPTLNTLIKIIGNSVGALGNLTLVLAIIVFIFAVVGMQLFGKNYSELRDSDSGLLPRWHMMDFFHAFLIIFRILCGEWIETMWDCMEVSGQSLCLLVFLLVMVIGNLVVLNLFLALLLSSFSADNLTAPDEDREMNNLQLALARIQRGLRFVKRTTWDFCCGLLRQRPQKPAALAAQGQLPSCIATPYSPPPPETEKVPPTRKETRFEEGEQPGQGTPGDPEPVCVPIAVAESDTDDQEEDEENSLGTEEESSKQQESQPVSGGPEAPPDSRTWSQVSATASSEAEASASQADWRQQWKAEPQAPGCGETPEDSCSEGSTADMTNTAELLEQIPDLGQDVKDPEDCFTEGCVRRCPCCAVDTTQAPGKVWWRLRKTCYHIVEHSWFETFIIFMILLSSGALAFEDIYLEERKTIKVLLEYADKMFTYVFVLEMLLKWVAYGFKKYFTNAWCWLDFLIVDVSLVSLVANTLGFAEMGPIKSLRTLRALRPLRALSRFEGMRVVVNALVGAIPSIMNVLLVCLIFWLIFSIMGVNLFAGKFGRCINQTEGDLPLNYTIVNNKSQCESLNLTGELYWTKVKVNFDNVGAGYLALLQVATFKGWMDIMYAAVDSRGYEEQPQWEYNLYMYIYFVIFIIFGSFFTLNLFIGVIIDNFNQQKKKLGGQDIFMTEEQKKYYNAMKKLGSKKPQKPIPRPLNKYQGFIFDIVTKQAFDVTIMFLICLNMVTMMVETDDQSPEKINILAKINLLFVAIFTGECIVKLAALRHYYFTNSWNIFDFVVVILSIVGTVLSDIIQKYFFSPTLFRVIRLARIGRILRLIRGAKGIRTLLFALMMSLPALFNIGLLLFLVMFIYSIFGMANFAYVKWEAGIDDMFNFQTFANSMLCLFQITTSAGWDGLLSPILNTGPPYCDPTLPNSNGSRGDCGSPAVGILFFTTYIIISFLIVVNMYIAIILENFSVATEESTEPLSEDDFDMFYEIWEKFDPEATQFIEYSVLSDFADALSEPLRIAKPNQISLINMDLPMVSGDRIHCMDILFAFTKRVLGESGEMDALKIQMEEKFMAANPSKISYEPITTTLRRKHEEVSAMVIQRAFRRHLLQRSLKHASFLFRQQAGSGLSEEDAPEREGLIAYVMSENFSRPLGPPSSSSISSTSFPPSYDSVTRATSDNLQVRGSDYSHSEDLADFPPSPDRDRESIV
# T7 sequence (P63252 whole entry): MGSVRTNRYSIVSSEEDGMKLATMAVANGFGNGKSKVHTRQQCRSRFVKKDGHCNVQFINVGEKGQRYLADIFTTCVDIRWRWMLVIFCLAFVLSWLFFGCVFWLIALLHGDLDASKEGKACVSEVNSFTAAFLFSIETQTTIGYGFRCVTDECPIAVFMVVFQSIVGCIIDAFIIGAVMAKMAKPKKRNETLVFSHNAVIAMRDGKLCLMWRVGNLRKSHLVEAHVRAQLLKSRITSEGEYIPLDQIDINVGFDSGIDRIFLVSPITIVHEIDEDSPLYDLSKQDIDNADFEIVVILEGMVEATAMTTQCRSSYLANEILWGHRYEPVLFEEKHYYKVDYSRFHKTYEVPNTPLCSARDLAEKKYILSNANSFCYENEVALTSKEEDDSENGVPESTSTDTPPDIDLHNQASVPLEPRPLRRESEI
# T8 sequence (Q09470 whole entry): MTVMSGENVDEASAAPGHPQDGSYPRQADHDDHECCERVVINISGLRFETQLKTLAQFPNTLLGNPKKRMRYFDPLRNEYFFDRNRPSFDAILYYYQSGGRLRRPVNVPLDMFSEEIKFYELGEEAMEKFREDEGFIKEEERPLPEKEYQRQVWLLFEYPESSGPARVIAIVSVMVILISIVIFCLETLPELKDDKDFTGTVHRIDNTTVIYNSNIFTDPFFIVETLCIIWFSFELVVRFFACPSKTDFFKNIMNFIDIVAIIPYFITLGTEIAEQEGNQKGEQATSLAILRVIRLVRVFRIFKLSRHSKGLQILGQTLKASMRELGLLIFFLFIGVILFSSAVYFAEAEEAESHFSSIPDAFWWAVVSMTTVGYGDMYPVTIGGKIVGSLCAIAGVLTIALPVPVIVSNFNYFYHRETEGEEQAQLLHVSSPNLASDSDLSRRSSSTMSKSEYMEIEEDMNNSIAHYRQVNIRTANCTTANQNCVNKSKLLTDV
substance,measurement,setting,value
24 (GSSCAKPGEMCMRIKCCDGQCGCNRGTGRCFCK) [compound 24],Activity of 5HT3a with peptide (percentage of the reference compound),5HT3a,84%
same,"Activity of 5HT3a with peptide, expressed as a percentage of the reference compound",5HT3a,85%
same,"Activity of a3b4 with peptide, expressed as a percentage of the reference compound",α3β4; peptide at 0.2 μM,101%
same,Activity of a3b4 with peptide (percentage of the reference compound),α3β4; peptide at 20 μM,87%
same,"Activity of a4b2 with peptide, expressed as a percentage of the reference compound",α4β2; peptide at 0.2 μM,97%
same,Activity of a4b2 with peptide (percentage of the reference compound),α4β2; peptide at 20 μM,88%
same,"Activity of Cav2.1 with peptide, expressed as a percentage of the reference compound",Cav2.1; peptide at 0.2 μM,92%
same,Activity of Cav2.1 with peptide (percentage of the reference compound),Cav2.1; peptide at 20 μM,121%
same,"Activity of Cav2.2 with peptide, expressed as a percentage of the reference compound",Cav2.2; peptide at 0.2 μM,120%
same,Activity of Cav2.2 with peptide (percentage of the reference compound),Cav2.2; peptide at 20 μM,102%
same,"Activity of Kv2.1 with peptide, expressed as a percentage of the reference compound",Kv2.1; peptide at 0.2 μM,91%
same,Activity of Kv2.1 with peptide (percentage of the reference compound),Kv2.1; peptide at 20 μM,81%
same,"Activity of GABA with peptide, expressed as a percentage of the reference compound",GABA; peptide at 0.2 μM,96%
same,Activity of GABA with peptide (percentage of the reference compound),GABA; peptide at 20 μM,114%
same,"Activity of Nav1.5 with peptide, expressed as a percentage of the reference compound",Nav1.5; [1],94%
same,"Activity of Nav1.5 with peptide, expressed as a percentage of the reference compound",Nav1.5; [2],95%
same,Activity of Nav1.5 with peptide (percentage of the reference compound),Nav1.5; [1],99%
same,Activity of Nav1.5 with peptide (percentage of the reference compound),Nav1.5; [2],104%
same,"Activity of hERG with peptide, expressed as a percentage of the reference compound",hERG; peptide at 0.2 μM,88%
same,Activity of hERG with peptide (percentage of the reference compound),hERG; peptide at 20 μM,78%
same,"Activity of Kir2.1 with peptide, expressed as a percentage of the reference compound",Kir2.1; peptide at 0.2 μM,104%
same,Activity of Kir2.1 with peptide (percentage of the reference compound),Kir2.1; peptide at 20 μM,90%
same,"Activity of Kv1.1 with peptide, expressed as a percentage of the reference compound",Kv1.1; peptide at 0.2 μM,65%
same,Activity of Kv1.1 with peptide (percentage of the reference compound),Kv1.1; peptide at 20 μM,69%
same,"Activity of Kv1.2 with peptide, expressed as a percentage of the reference compound",Kv1.2; peptide at 0.2 μM,74%
same,Activity of Kv1.2 with peptide (percentage of the reference compound),Kv1.2; peptide at 20 μM,83%
same,"Activity of Kv1.3 with peptide, expressed as a percentage of the reference compound",Kv1.3; peptide at 0.2 μM,94%
same,Activity of Kv1.3 with peptide (percentage of the reference compound),Kv1.3; peptide at 20 μM,73%
same,"Activity of Nav1.7 with peptide, expressed as a percentage of the reference compound",Nav1.7; [3],84%
same,"Activity of Nav1.7 with peptide, expressed as a percentage of the reference compound",Nav1.7; [4],97%
same,Activity of Nav1.7 with peptide (percentage of the reference compound),Nav1.7; [3],80%
same,Activity of Nav1.7 with peptide (percentage of the reference compound),Nav1.7; [4],83%
same,"Activity of NR2A with peptide, expressed as a percentage of the reference compound",NR2A; peptide at 0.2 μM,102%
same,Activity of NR2A with peptide (percentage of the reference compound),NR2A; peptide at 20 μM,100%
same,"Activity of NR2B with peptide, expressed as a percentage of the reference compound",NR2B; peptide at 0.2 μM,102%
same,Activity of NR2B with peptide (percentage of the reference compound),NR2B; peptide at 20 μM,92%
same,"Activity of TRPA1 with peptide, expressed as a percentage of the reference compound",TRPA1; peptide at 0.2 μM,132%
same,Activity of TRPA1 with peptide (percentage of the reference compound),TRPA1; peptide at 20 μM,107%
same,"Activity of TRPV1 with peptide, expressed as a percentage of the reference compound",TRPV1; peptide at 0.2 μM,131%
same,Activity of TRPV1 with peptide (percentage of the reference compound),TRPV1; peptide at 20 μM,102%
